Source: a protein production outcome set (Wang et al. 2014)

Assay: label from the status in PepcDB records
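Further: failed if final PepcDB status was selected cloned or expressed and not failed if soluble or beyond.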

VSIPANNSPVRLALIGAGRWGKNYIRTIAGLPGAALVRLASSNPDNLALVPPGCVIESDWRSVVSAPEVEAVIIATPPATHAEITLAAIASGKAVLVEKPLTLDLAEAEAVAAAAKATGVMVWVEHTQLFNPAWEALKADLTSIGPILAVRSEAGNHGPYRPGGVPMLWDWGAHDVSMVLDLMGRDPDSTSASWAARGEKDGGEAGDVTLTLAFSTVEAHIRLCNTMDKCRRLAVFGEAGTLVMDDRATDKLTLHPPQPDGNWPVGQGHALTVTDEMPLTRAVRLFAGAVRQPEPGPSPLELGLRVVRVLGACS
protein production: not failed

MDAADCYLEGNADAVEFCPHESYANLLAASTYTLQEGDCPSRSGSVYLFDVGDVEDVGLNLIQKIDTAGVFDIRWSRGGDGGDVALAQADADGCLIVYKIDETESKGTLREVSGKRISSSMCLCLDWDPSSTSIVVGLSDGSASVVSFTDSNLETVQEWKGHDFELWTASFDLNNPNLVYTGSDDCKFSCWDIRDSPADNRVFQNSKVHTMGVCCISSNPSDPYSIFTGSYDETLRVWDTRSVSRPLNETSVSLGGGVWRIKHHPSLSGVVLAACMHNGFALAKVSDGKGEVLESYNKHHSLAYGADWYRGKDQKQSVVATCSFYDRLLRVWMPITDFSTRCS
protein production: failed

MNKRCEEVLRRYFAEVPFIIEKACELAESMLGEGSHGLSHTIRVLDLALQIGRVEGANLEVLALAAILHDIARPLEDKGRIKDHAQEGARIVRSFLSKLRYPHVDEVAHAIEAHRFSTNIEPRTLEAKILSDADKIDALGAIGIARVFMYAGEKGRSIEDSIKHFEEKILRLKDLMYTETGKRIAQERHKIVEEFVNILKKELILEHHHHHH
protein production: not failed

MKPARAQGSIMLLVDVYLDKSPIQGIGVFAKHHIPMGTLIWKLDPRFDRIIDVETYEGESGPVKNYLDRYSYPDRRDPAYIVFEADDARYMNHDDEPNCDVSSPEETYALRDIAPGEELTCNYNHFFEAGFDFLGDRHL
protein production: failed

MPAPKKALRRSLTVTSAALTALALLSPAALAAPSPSTSPSATPPASMSGVGGARLGKPGTQVDLAGGAPVLPKDLTARSWIVADAESGDVLAAHNAHWELAPASTLKMLFADTLLPKWPKTTKRKVQVSDLAGIGSGSSMVGIKEEETYTVHDLWLGVFLRSGNDAVHVLSAMNDGVEKTVADMNAHAKELQAGDTTVVSPDGYDMPGQVSSAYDLTLFARSGLQKKDFREYASTVRAKFPGETKKDKKGKTSREPFEIQNTNRLLAGDADVEVYPGIAGVKNGYTTNAGNTFTGVAEQGGKVLLVTVMHPAEDKHNEVYKETARLFDWGFRAAGKVRPVGELVRPRSATAASPSAEASGEAGGTGKGGAGTKPVAGAAAGDGAGGAGVAAGIAAGVLALLAGGAFLINRKWPLPDLVRRRTRP
protein production: failed

MKLERFYRDTILLTMSNFATGILKFIFSVILSEKLGAEGVGLYQLIMPVYDLFCCLVCGGLNIAVSRKVAILSGKNDYSNVNSLIKISSLFCFIWSSLVAVILFFNSRFISNSFIKDMRSLYSLELICPALIFVTISAILKGYFYGISKAKVPAYIDILEKASRVGIVIAIINIFMLKSISKTVTAVYGVLSLGEFISLIALYIAFLIYRRNLRPVYSDRESSGQLIFDVFSVSIPLCINSFVSSLLAAASTLILPVRLVHAGFLHSEALSLIGKFSGMALIVTSFPVVIIVAMSTVLIPEISQNLNKRDYYSIEKRVTQVLKISFFLGTITMIIALSIPNLLGKLFFSRNDLGNYIAASALSVPVDYTSFATFSILSGLGKQNKLLINSLIVSIEQLILLYVLTGIRFINIYGYAITLFVTCLTAYILNMKEIRKVCYIRFSFVDMFIDTLLCILVYLILSILNNIVPNRFILPKTLFIIILGFVLFTFAITKIKDKLK
protein production: failed

MGYCQDDQLVNKICDLYEKISKLETLKPCEDVDTLFKQLVSTCIPPNPNIDVTKMSENIQEMRSNLIKICGEAEGYLEHHFSSILTSFEDNPLHHLNLFPYYNNYLKLSKLEFDLLEQNLNGFVPRTVAFIGSGPLPLTSVVLASSHLKDSIFHNFDIDPSANMVAARLVSSDPDLSQRMFFHTVDIMDVTESLKGFDVVFLAALVGMDKKEKVKVVEHLEKHMSPGALLMLRSAHGPRAFLYPIVEPCDLEGFEVLSVYHPTDEVINSIVISRKLGEDANGVVHDHIDQASDLACNCSKIHVIMNKKKSIIEEFAGANEEQLT
protein production: failed

MNIAANPHVQADQTVYLKDYQKPSFLVESINLDIQVYDDHTVVESTLVMNRQTAGDLVLLGRDLELKSIVLNGKNLEVGQYQLDHEQLVITHAPDQVILNTQVVIHPESNTQLEGLYKAGGDLFVTQNEPEGFRKITFYPDRPDVLAEFTTRVEADKKFPVLLANGNLLETGTVGENRHFAIWQDPTKKPSYLFACVIGDLAVLKDHYTTSEGREVALEIYAIEKDIPKCHIAMEALKHSMRWDEEHYGRPYDLDNYMIVAVSQFNMGAMENKGLNIFNTSCVLADEEYTTDAAIMRVQSVIAHEYFHNWTGNRITCRDWFQLCLKEGLTVFRDQSFSEDLQSAAVQRIDDVAVLKAHQFPEDAGPLSHPPRPDHFVEINNFYTATVYEKGAEINRMMSTLLGKEKFRQGTDEYFHRYDGQAVTVEDWVNALSAGSGVDLSNFLTWYNQPGTPKLEAKGEYDEQNHVYRLSFKQSLKVHPKYPNLKAVPVPVALALFNAETGEQYTLHCQDLFVNEVQDGVYLFDQDTATIEFSNVTQKPVVSLLRNFSAPVNLDFDYSDDELAFLIEYETNGFNQWQASQTLLERILLKDHAVEPYIKAIKNTLPDLVKKDPLLASRLFDVPTEGYLGSRIDHDYKPEAIQEKRNSVLETLARELGAFWKETYLSLDPSLQNDFSQAMGERALKNIMLSMMARQGDDSVFDLAYTQYSQTKNMSERLGALRVLVWNDAPQAQNALDDFYRRYKDEALSLDQWFMVQAANPNATAETIKALTEHPDYDLGTPNRVRSVSGGLSNNPVNAWSFGVEHYIGLAEYFDEKNPILGSRLLQVLSRWYTLAEPQRGNVQNALKDLQPHVKSKNVKETLNSILSV
protein production: failed

MFVRSHCLEVTNLRKWFYYFNRRNKRMQWLKVILAGFIEIIWVTGLDQAHSLFTWIFTLFFIALSFFLVIDASKHLPVGTVYAFFVGIGAVGTVLVDMIFFNQPFTFTKIFLIMTLILGIIGLKLTTDATKEGR
protein production: failed

MNIEKTRFCINRKIAPGLSIEAFFRLVKRLEFNKVELRNDMPSGSVTDDLNYNQVRNLAEKYGLEIVTINAVYPFNQLTEEVVKKTEGLLRDAQGVGARALVLCPLNDGTIVPPEVTVEAIKRLSDLFARYDIQGLVEPLGFRVSSLRSAVWAQQLIREAGSPFKVLLDTFHHHLYEEAEKEFASRIDISAIGLVHLSGVEDTRPTEALADEQRIMLSEKDVMQNYQQVQRLENMGYRGIYAFEPFSSQLASWSEAEIEEQINRSVSLLLQ
protein production: not failed

LVAVDEFIRRHFSQPVTMAELTGIAGMSAAQLERYCKKVFHLSPRQMIHKARLEHAHRLLHADMAITEVALRCGYADHSAFSRQFKALTGLTPRQYRQQ
protein production: failed

MQGHHFGGDMSNSEAIDNTTAKLRLAQSSSLLALALLIGSAPAQAADTDWGWLAIGAPAATAQGWTGKGVVIGVVDTGIDFSHPALSGRAFDYNYGSFVAGSNHPHATHVAGIIGATDINRGMEGVAPDVRFSSMKIFTGAGGSYLGDAAVADAYDGAIGSGVRIFNNSWGSSDSIANFTSREELLAHEPLLVGAFTRAVNADAVLVWSTGNDGRSQPSWQAAAPYYIQELKANWIAVTSVGENGTIASYANACGVAKAWCLAAPGGDFNPGIYSTIPGKDYGYMSGTSMAAPYVTGATAIARQMFPKASGAQLAQIVLQTSRDIGAPGIDDVYGWGLLAVDNIVDTINPRGAALFASAAWGRFTTLSAIGNTVLDRISDLRNGRGDVVTAPLAFAGQNGAFSQSGSNPRNAYAADLAAAPQPSPLGFGSVWARGLAGRATLSGSASSPQTTADISGGLLGFDLVNNQNLLVGIAGGGSNTNLTASGISDKAGAQAWHVLGYAAAMYGPAFVNVAGGWNSFDQSYQRRVIPGTAGTVFASTISAAQSSSTDVAYFFQGRGGWTFQTEVGRIEPYVHGATRNQSFGGFSETNASIFSLSVPSASLSEAEYGAGVRWACAPIKTVDQRVAVAPTIDLAYVRFTNDGPIQVETNLLGTSVVGQTAALGADAIRVAAGLSLTSLAGISGSFGYTGTVRDAATAHTVSGGLSIKF
protein production: failed

MNRRKISALLLSCTLAMNISSFNEIVLADENKGEEVQKESHNESNCIAGDYHEVNNGNAKNTENTPVINGIKVNKQLIDINYSQGVTINPKYIVIHDTDNRQAGANAMANRNYFANHPNAKASAHYIIDEGNIIQALEDTWKGWHVGDGNNPNINNSTTIAIELCVNKENDFDKTLENGIELTKYLVNKYNIPAENVVMHRDASGKTCSRMMIEDRPSLWPYFKERISGGDGSLEDDGLKPKMQGKVTNASVLNVRESPSTSGRIVHKLNRNQVVGIYEELNGWYKIDYIDGVKKKYGYVSKDYISIINENPEDEETNGDIEIEKPSVSVNKQGIVKVNSALNMRSGPGSNYGVIGTLRNNDEVEIIKEVDGWYEIKFNGKSGYVSSQYIKVLDNESNEEKPVEPEKPSVSLNKQGVVKVNSALNMRSGPGSNYGVIGTLRNNDEVEIIKEVDGWYEIKFNGKSGYVSSQYIKVLDNESNEEKPVEPEKPSVSLNKQGVVKVNSALNMRSGPGSNYGVIGTLRNNDKVEIIKEVDGWYEIRFNGKVGYASKSYITIVNEGSNNGTDSVIKEGTVYGVSTNLNVRTGPGTSYQVIGYLLSGDKVKILGDENGWYKVQFNASTGTKNGYVSKDYIKV
protein production: failed

MTQDASPILTSLLDTDAYKLHMQQAVFHHYRHITVAAEFRCRSDELLGVYADEIRHQVTLMGQLALTSDEFIYLSSLPFFQDDYLHWLRDFRFKPEQVSVAVHDGKLDIRIAGLWCEVIMWEVPLLAVISEIVHRRRSTQVTTDQAVQQLRTKLEQFNALSADIDITHFKLMDFGTRRRFSREIQHTVVSTLKDEFPYLVGTSNYDLARTLALAPVGTQAHEWFQAHQQISPTLANSQRVALQVWLDEYPNQLGIALTDCITMDAFLRDFDLAFANRYQGLRHDSGDPIEWGEKAIAHYEKLGIDPMKKVLVFSDNLDLEKALFLYRHFYQRIKLVFGIGTRLTCDIPDVKPLNIVIKLVECNDKPVAKLSDSPGKTICQDPAFVDQLRKAFALPLVKKAS
protein production: not failed

GQVDGEDVVSISSADLDETEGNLNMTTVSVRSGMTLSQVISRWLFTDDTIVPIEQVFPPGQSTEEVEESNRTAFISSESSATIAAMNYLNIPVEVEVAEVLTDSAATGIFEPGDKLLSIDGTAISTPGDAQTIVRSKAPGDEITISYERNDAESQATITLREHPDDSSVALLGISMLSVP
protein production: failed

MTETGDDLATVKKPIPFLVIFKDLRHVFSRDTTGREILGIAFPAALALAADPIASLIDTAFVGRLGAVQLAAVGVSIAIFNQASRITIFPLVSLTTSFVAEEDTMEKMKEEANKANLVHAETILVQDSLEKGISSPTSNDTNQPQQPPAPDTKSNSGNKSNKKEKRTIRTASTAMILGLILGLVQAIFLIFSSKLLLGVMGVKPNSPMLSPAHKYLSIRALGAPALLLSLAMQGIFRGFKDTKTPLFATVVADVINIVLDPIFIFVLRLGIIGAAIAHVISQYFMTLILFVFLAKKVNLIPPNFGDLQFGRFLKNGLLLLARTIAVTFCQTLAAAMAARLGTTPMAAFQICLQVWLTSSLLNDGLAVAGQAILACSFAEKDYNKVTAVASRVLQMGFVLGLGLSVFVGLGLYFGAGVFSKDPAVIHLMAIGIPFIAATQPINSLAFVLDGVNFGASDFAYTAYSMVGVAAISIAAVIYMAKTNGFIGIWIALTIYMALRAITGIARMATGTGPWRFLRGRSSSSSS
protein production: failed

MASSKQADPQTDARPLPQDFETALAELESLVSAMENGTLPLEQSLSAYRRGVELARVCQDRLAQAEQQVKVLEGDLLRPLDPAALDDE
protein production: not failed

MRMNIRVALPQAQVHWCRGWLQAAHADALMQALLDQVQWEVHRIRMFGRVVDSPRLSSWIGDADASYRYSGTQFAPQPWLEALQPVRTRLQDETGSPFNSVLVNRYRSGADAMGWHSDDEPELGAQPVIASLSLGAARRFAFKHRHDAALKQTLELGHGDLLLMGGDTQRHYKHALPRTVKPVGERINLTFRQIAVRVSQRLEHHHHHH
protein production: failed
